Each block holds one binder with its values, some of them ahead of it.
Key:
[1] = molecular target: T1, human A33 transmembrane glycoprotein expressed on stably transfected murine colorectal carcinoma cells (Homo sapiens (Human)., UniProt Q99795); assay: flow cytometry on cells
[2] = molecular target: A33 in human colon and human colon adenocarcinoma tissue sections (Homo sapiens (Human)., UniProt Q99795); assay: immunostaining of cells or tissue
[3] = molecular target: T1, human A33 transmembrane glycoprotein …; assay: immunostaining of cells or tissue

T1 sequence (Q99795 22-319): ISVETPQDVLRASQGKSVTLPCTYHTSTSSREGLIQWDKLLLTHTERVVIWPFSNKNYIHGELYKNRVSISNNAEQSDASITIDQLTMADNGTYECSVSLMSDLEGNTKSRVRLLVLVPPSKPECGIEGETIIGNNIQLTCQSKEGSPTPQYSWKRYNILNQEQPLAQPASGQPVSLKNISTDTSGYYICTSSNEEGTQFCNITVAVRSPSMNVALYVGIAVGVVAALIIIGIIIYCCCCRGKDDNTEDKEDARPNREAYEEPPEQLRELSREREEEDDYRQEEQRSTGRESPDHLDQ
Sequence of A33 in human colon and human colon adenocarcinoma tissue sections (Q99795 22-319): as above

- binding result [1]: binds
- binding result [2]: binds
B1: IgG2a(K), murine anti-A33 antibody K in murine IgG2a format (antibody, V domains shown)
VH: EVKLVESGGGLVKPGGSLKLSCAASGFAFSTYDMSWVRQTPEKRLEWVATISSGGSYTYYLDSVKGRFTISRDSARNTLYLQMSSLRSEDTALYYCAPTTVVPFAYWGQGTLVTVSA
VL: DIVMTQSQKFMSTSVGDRVSITCKASQNVRTVVAWYQQKPGQSPKTLIYLASNRHTGVPDRFTGSGSGTDFTLTISNVQSEDLADYFCLQHWSYPLTFGSGTKLEVK

- binding result [3]: binds
B2: FITC-labeled IgG2a(K) (antibody, V domains shown)
VH: B1 VH
VL: B1 VL

- binding result [3]: binds
B3: FITC-labeled IgG2a(MG) (antibody, V domains shown)
VH: QVQLQQSGPELVKPGASVKISCKASGYTFSGSWMNWVKQRPGQGLEWIGRIYPGDGETNYNGKFKDKATLTADKSSTTAYMELSSLTSVDSAVYFCARIYGNNVYFDVWGAGTTVTVSS
VL: QIVLTQSPAIMSASPGERVTMTCSARSSISFMYWYQQKPGSSPRLLIYDTSNLASGVPVRFSGSGSGTSYSLTISRMEAEDAATYYCQQWSSYPLTFGSGTKLELK
